Laboratory results: paper PMC5923263

Assays:
[1] = molecular target: His-tagged Sll1961 (wild type) (Synechocystis sp. PCC 6803); assay: SEC-MALS; size exclusion chromatography with static light scattering (Viscotek TDA 305), Superdex 75 increase 3.2/300; BSA as standard
[2] = molecular target: His-tagged Sll1961 (wild type) (Synechocystis sp. PCC 6803); assay: SEC; His-Sll1961 reduced with 100 mM DTT for 15 min at room temperature, 60 μM; Superdex 75 increase 3.2/300 or Superdex 200 increase 3.2/300; 20 mM sodium phosphate (pH 7.4), 150 mM NaCl, 3 mM DTT; standards of 150, 66 and 44 kDa
[3] = molecular target: His-tagged Sll1961 C124A (Synechocystis sp. PCC 6803); assay: SEC-MALS; size exclusion chromatography with static light scattering (Viscotek TDA 305), Superdex 75 increase 3.2/300; BSA as standard
[4] = molecular target: His-tagged Sll1961 C124A (Synechocystis sp. PCC 6803); assay: SEC; His-Sll1961 reduced with 100 mM DTT for 15 min at room temperature, 60 μM; Superdex 75 increase 3.2/300 or Superdex 200 increase 3.2/300; 20 mM sodium phosphate (pH 7.4), 150 mM NaCl, 3 mM DTT; standards of 150, 66 and 44 kDa
[5] = molecular target: His-tagged Sll1961 C229A (Synechocystis sp. PCC 6803); assay: SEC-MALS; size exclusion chromatography with static light scattering (Viscotek TDA 305), Superdex 75 increase 3.2/300; BSA as standard
[6] = molecular target: His-tagged Sll1961 C229A (Synechocystis sp. PCC 6803); assay: SEC; His-Sll1961 reduced with 100 mM DTT for 15 min at room temperature, 60 μM; Superdex 75 increase 3.2/300 or Superdex 200 increase 3.2/300; 20 mM sodium phosphate (pH 7.4), 150 mM NaCl, 3 mM DTT; standards of 150, 66 and 44 kDa
[7] = molecular target: His-tagged Sll1961 C307A (Synechocystis sp. PCC 6803); assay: SEC-MALS; size exclusion chromatography with static light scattering (Viscotek TDA 305), Superdex 75 increase 3.2/300; BSA as standard
[8] = molecular target: His-tagged Sll1961 C307A (Synechocystis sp. PCC 6803); assay: SEC; His-Sll1961 reduced with 100 mM DTT for 15 min at room temperature, 60 μM; Superdex 75 increase 3.2/300 or Superdex 200 increase 3.2/300; 20 mM sodium phosphate (pH 7.4), 150 mM NaCl, 3 mM DTT; standards of 150, 66 and 44 kDa

With “His-tagged Sll1961 (wild type) (natural protein)” the stoichiometry N [1] was 2 and the stoichiometry N [2] was 2.
Substance “His-tagged Sll1961 C124A (natural protein)” has a stoichiometry N [3] of 2 and a stoichiometry N [4] of 2.
“His-tagged Sll1961 C229A (natural protein)” showed a stoichiometry N [5] of 2 and a stoichiometry N [6] of 2.
With “His-tagged Sll1961 C307A (natural protein)” the stoichiometry N [7] was 2 and the stoichiometry N [8] was 2.
